Reference: patent publication US20260207798A1, “CYCLIC PEPTIDES AS PET IMAGING AGENTS OF GRANZYME B” (priority 2022, published 2026)
Bridge positions count the residues as written; N and C are the ends. Square brackets hold non-standard residues; d marks the D form. * marks the point of attachment. NOTA‑1 = 1,4,7-triazacyclononane-N,N',N''-triacetic acid phenyl thiourea; Pro(cis-4-Ph) = O=C(O)[C@@H]1C[C@H](c2ccccc2)CN1; Peg4 = polyethylene glycol with 4 units (PEG4); Trp(5-F) = N[C@@H](Cc1c[nH]c2ccc(F)cc12)C(=O)O; Pro(trans-4-F) = O=C(O)[C@@H]1C[C@@H](F)CN1; Phe(4-F) = N[C@@H](Cc1ccc(F)cc1)C(=O)O; Phe(4-Me) = Cc1ccc(C[C@H](N)C(=O)O)cc1; Tic = O=C(O)[C@@H]1Cc2ccccc2CN1; Pip = O=C(O)[C@@H]1CCCCN1; Aze = O=C(O)[C@@H]1CCN1; Propionyl = CCC(=O)*

B1: Compound 47a (peptide)
peptide: {CH2CO}-FNFEDQSPDT[Trp(5-F)]QPCG-NH2
modifications: thioether N-14
B2: Compound 81a (peptide)
peptide: {CH2CO}-FNFEDQSANTWQPCG-NH2
modifications: thioether N-14
SMILES: C[C@@H]1NC(=O)[C@H](CO)NC(=O)[C@H](CCC(N)=O)NC(=O)[C@H](CC(=O)O)NC(=O)[C@H](CCC(=O)O)NC(=O)[C@H](Cc2ccccc2)NC(=O)[C@H](CC(N)=O)NC(=O)[C@H](Cc2ccccc2)NC(=O)CSC[C@@H](C(=O)NCC(N)=O)NC(=O)[C@@H]2CCCN2C(=O)[C@H](CCC(N)=O)NC(=O)[C@H](Cc2c[nH]c3ccccc23)NC(=O)[C@H]([C@@H](C)O)NC(=O)[C@H](CC(N)=O)NC1=O
B3: Compound 85a (peptide)
peptide: {CH2CO}-FNFEDQSAITWQPCG-NH2
modifications: thioether N-14
SMILES: CC[C@H](C)[C@@H]1NC(=O)[C@H](C)NC(=O)[C@H](CO)NC(=O)[C@H](CCC(N)=O)NC(=O)[C@H](CC(=O)O)NC(=O)[C@H](CCC(=O)O)NC(=O)[C@H](Cc2ccccc2)NC(=O)[C@H](CC(N)=O)NC(=O)[C@H](Cc2ccccc2)NC(=O)CSC[C@@H](C(=O)NCC(N)=O)NC(=O)[C@@H]2CCCN2C(=O)[C@H](CCC(N)=O)NC(=O)[C@H](Cc2c[nH]c3ccccc23)NC(=O)[C@H]([C@@H](C)O)NC1=O
B4: Compound 84a (peptide)
peptide: {CH2CO}-FNFEDQSAVTWQPCG-NH2
modifications: thioether N-14
SMILES: CC(C)[C@@H]1NC(=O)[C@H](C)NC(=O)[C@H](CO)NC(=O)[C@H](CCC(N)=O)NC(=O)[C@H](CC(=O)O)NC(=O)[C@H](CCC(=O)O)NC(=O)[C@H](Cc2ccccc2)NC(=O)[C@H](CC(N)=O)NC(=O)[C@H](Cc2ccccc2)NC(=O)CSC[C@@H](C(=O)NCC(N)=O)NC(=O)[C@@H]2CCCN2C(=O)[C@H](CCC(N)=O)NC(=O)[C@H](Cc2c[nH]c3ccccc23)NC(=O)[C@H]([C@@H](C)O)NC1=O
B5: Compound 82a (peptide)
peptide: {CH2CO}-FNFEDQSATTWQPCG-NH2
modifications: thioether N-14
SMILES: C[C@@H]1NC(=O)[C@H](CO)NC(=O)[C@H](CCC(N)=O)NC(=O)[C@H](CC(=O)O)NC(=O)[C@H](CCC(=O)O)NC(=O)[C@H](Cc2ccccc2)NC(=O)[C@H](CC(N)=O)NC(=O)[C@H](Cc2ccccc2)NC(=O)CSC[C@@H](C(=O)NCC(N)=O)NC(=O)[C@@H]2CCCN2C(=O)[C@H](CCC(N)=O)NC(=O)[C@H](Cc2c[nH]c3ccccc23)NC(=O)[C@H]([C@@H](C)O)NC(=O)[C@H]([C@@H](C)O)NC1=O
B6: Compound 54a (peptide)
peptide: {CH2CO}-[Phe(4-F)]NFEDQSPDTWQPCG-NH2
modifications: thioether N-14
SMILES: C[C@@H](O)[C@@H]1NC(=O)[C@H](CC(=O)O)NC(=O)[C@@H]2CCCN2C(=O)[C@H](CO)NC(=O)[C@H](CCC(N)=O)NC(=O)[C@H](CC(=O)O)NC(=O)[C@H](CCC(=O)O)NC(=O)[C@H](Cc2ccccc2)NC(=O)[C@H](CC(N)=O)NC(=O)[C@H](Cc2ccc(F)cc2)NC(=O)CSC[C@@H](C(=O)NCC(N)=O)NC(=O)[C@@H]2CCCN2C(=O)[C@H](CCC(N)=O)NC(=O)[C@H](Cc2c[nH]c3ccccc23)NC1=O
B7: Compound 13a (peptide)
peptide: {CH2CO}-FNFEDQSPDTWQPCGGK(NOTA‑1)-NH2
modifications: thioether N-14
B8: Compound 50a (peptide)
peptide: {CH2CO}-FNFEDQSPDTWQ[Pro(cis-4-Ph)]CG-NH2
modifications: thioether N-14
B9: Compound 76a (peptide)
peptide: {CH2CO}-FNFEDQS[Pip]DTWQPCG-NH2
modifications: thioether N-14
B10: Compound 75a (peptide)
peptide: {CH2CO}-FNFEDQS[Aze]DTWQPCG-NH2
modifications: thioether N-14
B11: Compound 64a (peptide)
peptide: {CH2CO}-FNFEDQS[Tic]DTWQPCG-NH2
modifications: thioether N-14
SMILES: C[C@@H](O)[C@@H]1NC(=O)[C@H](CC(=O)O)NC(=O)[C@@H]2Cc3ccccc3CN2C(=O)[C@H](CO)NC(=O)[C@H](CCC(N)=O)NC(=O)[C@H](CC(=O)O)NC(=O)[C@H](CCC(=O)O)NC(=O)[C@H](Cc2ccccc2)NC(=O)[C@H](CC(N)=O)NC(=O)[C@H](Cc2ccccc2)NC(=O)CSC[C@@H](C(=O)NCC(N)=O)NC(=O)[C@@H]2CCCN2C(=O)[C@H](CCC(N)=O)NC(=O)[C@H](Cc2c[nH]c3ccccc23)NC1=O
B12: Compound 71a (peptide)
peptide: {CH2CO}-FNFEDQSPDTWQ[Pip]CG-NH2
modifications: thioether N-14
notes: also called 71aa
B13: Compound 43a (peptide)
peptide: {CH2CO}-[Phe(4-Me)]NFEDQSPDTWQPCG-NH2
modifications: thioether N-14
B14: Compound 3a (peptide)
peptide: {CH2CO}-FNFEDQSADTWQPCGGK(RESCA‑1)-NH2
modifications: thioether N-14
B15: Compound 4a (peptide)
peptide: {CH2CO}-FNFEDQSADTWQPCGGK(Propionyl)-NH2
modifications: thioether N-14
B16: Compound 16a (peptide)
peptide: {CH2CO}-FNFEDQSADTWQPCGGK(Peg4)-NH2
modifications: thioether N-14
B17: Compound 23a (peptide)
peptide: {CH2CO}-FNFEDQSVDTWQPCGGK-NH2
modifications: thioether N-14
SMILES: CC(C)[C@@H]1NC(=O)[C@H](CO)NC(=O)[C@H](CCC(N)=O)NC(=O)[C@H](CC(=O)O)NC(=O)[C@H](CCC(=O)O)NC(=O)[C@H](Cc2ccccc2)NC(=O)[C@H](CC(N)=O)NC(=O)[C@H](Cc2ccccc2)NC(=O)CSC[C@@H](C(=O)NCC(=O)NCC(=O)N[C@@H](CCCCN)C(N)=O)NC(=O)[C@@H]2CCCN2C(=O)[C@H](CCC(N)=O)NC(=O)[C@H](Cc2c[nH]c3ccccc23)NC(=O)[C@H]([C@@H](C)O)NC(=O)[C@H](CC(=O)O)NC1=O
B18: Compound 61a (peptide)
peptide: {CH2CO}-FNFEDQAPDTWQPCGGK-NH2
modifications: thioether N-14
SMILES: C[C@@H]1NC(=O)[C@H](CCC(N)=O)NC(=O)[C@H](CC(=O)O)NC(=O)[C@H](CCC(=O)O)NC(=O)[C@H](Cc2ccccc2)NC(=O)[C@H](CC(N)=O)NC(=O)[C@H](Cc2ccccc2)NC(=O)CSC[C@@H](C(=O)NCC(=O)NCC(=O)N[C@@H](CCCCN)C(N)=O)NC(=O)[C@@H]2CCCN2C(=O)[C@H](CCC(N)=O)NC(=O)[C@H](Cc2c[nH]c3ccccc23)NC(=O)[C@H]([C@@H](C)O)NC(=O)[C@H](CC(=O)O)NC(=O)[C@@H]2CCCN2C1=O
B19: Compound 26a (peptide)
peptide: {CH2CO}-FNFEDQSADTWQPCGGK-NH2
modifications: thioether N-14
notes: also called 2b
B20: Compound 9a (peptide)
peptide: {CH2CO}-FNFEDQSADTWQPCGGK(AF647)-NH2
modifications: thioether N-14
B21: Compound 49a (peptide)
peptide: {CH2CO}-FNFEDQSPDTWQ[Pro(trans-4-F)]CG-NH2
modifications: thioether N-14

Target: T1, human Granzyme B (human, UniProt P10144 21-247)
T1 construct: Captured on a Series S Streptavidin chip for SPR; also called hGranzyme B; GzmB
Assay: SPR, Biacore 8k+, hGranzyme B captured on SA chip, single cycle kinetics, 1:1 model

T1 sequence (P10144 21-247 limits assumed): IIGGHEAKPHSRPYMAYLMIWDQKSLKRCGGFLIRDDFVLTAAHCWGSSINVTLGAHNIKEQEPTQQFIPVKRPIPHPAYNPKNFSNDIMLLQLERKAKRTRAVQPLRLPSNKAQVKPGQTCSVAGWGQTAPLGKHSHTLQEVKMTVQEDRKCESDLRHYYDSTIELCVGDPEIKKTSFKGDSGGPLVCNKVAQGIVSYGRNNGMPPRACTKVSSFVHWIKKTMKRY

| Binder | Kd |
| --- | --- |
| B1 | 4.1 nM |
| B2 | 43.4 nM |
| B3 | 58.3 nM |
| B4 | 52.2 nM |
| B5 | 45.8 nM |
| B6 | 4.9 nM |
| B7 | 4.4 nM |
| B8 | 4.6 nM |
| B9 | 28.6 nM |
| B10 | 28.3 nM |
| B11 | 8.1 nM |
| B12 | 19.6 nM |
| B13 | 3.1 nM |
| B14 | 15.1 nM |
| B15 | 11.7 nM |
| B16 | 19 nM |
| B17 | 27.5 nM |
| B18 | 6.3 nM |
| B19 | 15.4 nM |
| B20 | 13 nM |
| B21 | 4.5 nM |
